The text below walks through data of the Immune Epitope Database (IEDB).

The target in assay [1] is HLA-A*02:01. Description: IEDB peptide-MHC binding, purified MHC/competitive/fluorescence; ≥ and ≤ were set here for values at or beyond the usual limits of such assays.
Assay [2] deals with HLA-A*23:01. Description: IEDB peptide-MHC binding, purified MHC/competitive/radioactivity; filed as Kd, often an IC50 or EC50 that approximates it; ≥ and ≤ were set here for values at or beyond the usual limits of such assays.
The target of assay [3] is HLA-A*01:01. The description is as above.
The target of assay [4] is HLA-A*26:01. The assay is described as above.
Assay [5] deals with HLA-A*30:02. Described as above.
Assay [6] has as its target HLA-A*29:02. Described as above.
The target of assay [7] is HLA-A*24:02. Described as above.
Assay [8] concerns the target HLA-A*69:01. Description: IEDB peptide-MHC binding, purified MHC/direct/fluorescence; filed as Kd, often an IC50 or EC50 that approximates it; ≥ and ≤ were set here for values at or beyond the usual limits of such assays. Particulars: source organism: Vaccinia virus Copenhagen.
Assay [9] deals with HLA-B*15:01. Described as above. Particulars: source organism: Vaccinia virus Copenhagen.
The target of assay [10] is HLA-B*58:01. Described as above. The note with it: source organism: Vaccinia virus Copenhagen.
For assay [11], the target named is HLA-A*02:01. The assay is described as above. Particulars: source organism: Vaccinia virus Copenhagen.
Assay [12] addresses HLA-B*44:03. Description: IEDB peptide-MHC binding, purified MHC/competitive/radioactivity; filed as Kd, often an IC50 or EC50 that approximates it; ≥ and ≤ were set here for values at or beyond the usual limits of such assays. Particulars: source organism: Dengue virus 3 Martinique/1243/1999.
In assay [13] the target is HLA-A*31:01. Described as above. Particulars: source organism: SARS coronavirus Tor2.
Assay [14] has as its target HLA-A*33:01. Described as above. The note with it: source organism: SARS coronavirus Tor2.
The target in assay [15] is HLA-A*11:01. The assay is described as above. Particulars: source organism: SARS coronavirus Tor2.
Assay [16] has as its target HLA-A*03:01. The assay is described as above. Particulars: source organism: SARS coronavirus Tor2.
Assay [17] addresses HLA-A*68:01. The assay is described as above. Particulars: source organism: SARS coronavirus Tor2.
The mark [18] stands for this setting: source organism: SARS coronavirus Tor2.
[19] abbreviates: source organism: Mammarenavirus machupoense.
Setting [20] is: source organism: Zaire ebolavirus.
Where [21] appears, read: source organism: Mammarenavirus juninense.
[22] abbreviates: source organism: Triticum aestivum.
The mark [23] stands for this setting: source organism: Lassa virus Josiah.

As usually defined, the IC50 is the midpoint of a concentration-inhibition curve. A low value points to inhibition by little substance. A word on the Kd: it is the free concentration of one partner at which half of the binding sites on the other are occupied at equilibrium, for simple one-to-one binding.

Regarding PVILSLPRI, the half-maximal inhibitory concentration (IC50) in assay [1] (source organism: Variola virus) was 1.87 µM.

Regarding EWSVATFYL, the Kd is 5.5 µM in assay [2] (setting [18]); no less than 78.1 µM in [3] (setting [18]); no less than 45.4 µM in assay [4] (setting [18]); no less than 29.7 µM in assay [5] (setting [18]); no less than 59.4 µM in [6] (setting [18]); 1.78 µM in assay [7] (setting [18]).

Turning to AYSKSLKELV, the equilibrium dissociation constant (Kd) in assay [2] (setting [19]) was 16.3 µM; in [3] (setting [19]), no less than 70.4 µM; in [4] (setting [19]), no less than 69.7 µM; in assay [5] (setting [19]), no less than 26.7 µM; in assay [6] (setting [19]) it was no less than 57 µM; in assay [7] (setting [19]) it was 2.64 µM.

In [1] (setting [20]), AATEAEKQL returned a half-inhibitory concentration (IC50) of no less than 436 µM.

For the sequence LFQFFVFLV, the dissociation constant Kd in assay [2] (setting [21]) is 15.7 µM; in [3] (setting [21]), 0.531 µM; in assay [4] (setting [21]) it was no less than 57.2 µM; in assay [5] (setting [21]), 0.986 µM; in assay [6] (setting [21]), 0.437 µM; in assay [7] (setting [21]), 18.8 µM.

Turning to DLGPAFTEL, the dissociation constant Kd was 0.0222 µM in assay [8], no less than 27.7 µM in assay [9], 8.71 µM in assay [10] and 0.219 µM in assay [11].

With QFLGQQQPF, the equilibrium dissociation constant (Kd) in assay [2] (setting [22]) was 7.75 µM; in assay [3] (setting [22]), no less than 78.1 µM; in assay [4] (setting [22]), no less than 77.9 µM; in assay [5] (setting [22]), 0.831 µM; in assay [6] (setting [22]), 1.47 µM; in assay [7] (setting [22]) it was 0.206 µM.

VISNSVAQA had an IC50 in assay [1] (setting [20]) of 5.79 µM.

Regarding FFFVYENAF, the Kd in assay [2] (setting [18]) was no less than 24 µM; in assay [3] (setting [18]) it was 2.67 µM; in assay [4] (setting [18]), 9.24 µM; in assay [5] (setting [18]), no less than 96.8 µM; in assay [6] (setting [18]), no less than 23.9 µM; in [7] (setting [18]) it was no less than 60.4 µM.

As to DNSTHNTPV, in [1] (setting [20]), the IC50 was no less than 456 µM.

VTLRKERLA returned an IC50 in assay [1] (setting [20]) of no less than 360 µM.

Turning to KYKYFSGAL, the equilibrium dissociation constant (Kd) in assay [2] (setting [18]) is 15 µM; in [3] (setting [18]), no less than 78.1 µM; in assay [4] (setting [18]) it was no less than 75.5 µM; in [5] (setting [18]), no less than 44.6 µM; in assay [6] (setting [18]) it was no less than 25 µM; in assay [7] (setting [18]), no less than 25.7 µM.

As for VIPVYQVNN, in assay [1] (setting [20]), the IC50 was no less than 340 µM.

Turning to EEMFKKRNLT, the Kd in assay [12] worked out at 4.53 µM.

As for WIEFTNFKV, the Kd in [2] (setting [19]) was no less than 77.7 µM; in assay [3] (setting [19]), no less than 78.1 µM; in [4] (setting [19]), no less than 77.9 µM; in assay [5] (setting [19]), no less than 49.9 µM; in [6] (setting [19]), 8.07 µM; in assay [7] (setting [19]) it was no less than 77.5 µM.

As to CGSVGFNIDY, the equilibrium dissociation constant (Kd) in assay [2] (setting [18]) was no less than 70 µM; in [3] (setting [18]), 7.3 µM; in assay [4] (setting [18]), no less than 20.7 µM; in assay [5] (setting [18]) it was 0.371 µM; in assay [6] (setting [18]), 0.774 µM; in [7] (setting [18]), no less than 70.3 µM.

For LCANEYTGNY, the dissociation constant (Kd) is no less than 70 µM in [2] (setting [18]); 0.445 µM in assay [3] (setting [18]); no less than 29.9 µM in assay [4] (setting [18]); 0.0804 µM in [5] (setting [18]); 0.0983 µM in assay [6] (setting [18]); no less than 70.3 µM in assay [7] (setting [18]).

In assay [1] (source organism: Vaccinia virus Copenhagen), IFINKLNGA came in with an IC50 of 3.28 µM.

Take AHGSTLAGV: the half-maximal inhibitory concentration (IC50) in assay [1] (setting [20]) came to 59.9 µM.

In the case of TVAYFNMVY, the Kd in [2] (setting [18]) was 14.1 µM; in [13] it was no less than 56.9 µM; in assay [14], no less than 52 µM; in assay [3] (setting [18]), 0.123 µM; in [4] (setting [18]), 0.0142 µM; in assay [15], 0.0605 µM. Moreover, the dissociation constant Kd came to 0.0413 µM in [16]; 0.0759 µM in [17]; 0.071 µM in assay [5] (setting [18]); 0.00381 µM in assay [6] (setting [18]); 11 µM in assay [7] (setting [18]).

As for LYNFATCGLV, the Kd in [2] (setting [23]) is 2.35 µM; in assay [3] (setting [23]), no less than 31.3 µM; in [4] (setting [23]), no less than 69.7 µM; in assay [5] (setting [23]), 0.575 µM; in assay [6] (setting [23]), 0.62 µM; in assay [7] (setting [23]), 11.9 µM.
